Measured values published in PMC5481773, “Structural insights into the function of ZRANB3 in replication stress response” (Nature Communications, 2017).

Molecular target: T1, His-tagged Proliferating Cell Nuclear Antigen (PCNA) (human, UniProt P12004 1-261)
T1 construct: human PCNA, cloned into the NdeI and XhoI sites of pET28a for expression with an N-terminal His-tag; Used for ITC and for the peptide pull-downs; also called His-tagged PCNA; His-tagged recombinant PCNA; source: E. coli, from pET28a, purified (Ni-NTA, Q-sepharose, Superdex S-200); not shown: His tag, N-terminal, kept
Assay: ITC; 15 μM PCNA in the cell, peptides injected stepwise (20 injections of 2 μl), 25 °C, PBS with 1 mM β-mercaptoethanol, single set of independent binding sites model
Details: both partners purified

T1 sequence (P12004 whole entry): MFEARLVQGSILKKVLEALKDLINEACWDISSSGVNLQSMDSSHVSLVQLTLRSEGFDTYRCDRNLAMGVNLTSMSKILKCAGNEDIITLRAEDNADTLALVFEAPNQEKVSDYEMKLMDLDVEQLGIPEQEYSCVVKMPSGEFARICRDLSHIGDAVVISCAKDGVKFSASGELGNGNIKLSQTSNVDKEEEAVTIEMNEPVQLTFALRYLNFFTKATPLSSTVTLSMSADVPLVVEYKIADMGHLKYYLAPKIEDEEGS

Kd [µM] | stoichiometry N [peptide per PCNA monomer] | Binder
9.24 | 1 | SKHGSDITRFLVKK [ZRANB3 APIM motif synthetic peptide used for ITC]
4.8 | 1 | EKEKQHDIRSFFVPQ [ZRANB3 PIP box synthetic peptide used for ITC]
